Reference: patent US20030148420

Target: T1, Aspergillus ochraceus 11 alpha hydroxylase
T1 chain: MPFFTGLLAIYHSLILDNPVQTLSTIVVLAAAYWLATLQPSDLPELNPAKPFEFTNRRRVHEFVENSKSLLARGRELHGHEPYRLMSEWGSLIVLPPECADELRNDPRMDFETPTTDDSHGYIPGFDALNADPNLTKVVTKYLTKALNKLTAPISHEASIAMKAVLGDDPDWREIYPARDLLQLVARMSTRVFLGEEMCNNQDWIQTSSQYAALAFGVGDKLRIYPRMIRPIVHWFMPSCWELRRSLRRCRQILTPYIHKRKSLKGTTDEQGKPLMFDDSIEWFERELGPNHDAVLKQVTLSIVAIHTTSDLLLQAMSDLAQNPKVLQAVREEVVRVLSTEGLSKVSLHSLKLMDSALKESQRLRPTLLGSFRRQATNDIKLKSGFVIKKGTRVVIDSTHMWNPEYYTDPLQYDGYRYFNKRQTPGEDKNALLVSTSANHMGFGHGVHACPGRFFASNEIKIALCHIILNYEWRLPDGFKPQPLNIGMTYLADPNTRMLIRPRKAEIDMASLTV

B1: human oxidoreductase (protein)
chain: MGDSHVDTSSTVSEAVAEEVSLFSMTDMILFSLIVGLLTYWFLFRKKKEEVPEFTKIQTLTSSVRESSFVEKMKKTGRNIIVFYGSQTGTAEEFANRLSKDAHRYGMRGMSADPEEYDLADLSSLPEIDNALVVFCMATYGEGDPTDNAQDFYDWLQETDVDLSGVKFAVFGLGNKTYEHFNAMGKYVDKRLEQLGAQRIFELGLGDDDGNLEEDFITWREQFWPAVCEHFGVEATGEESSIRQYELVVHTDIDAAKVYMGEMGRLKSYENQKPPFDAKNPFLAAVTTNRKLNQGTERHLMHLELDISDSKIRYESGDHVAVYPANDSALVNQLGKILGADLDVVMSLNNLDEESNKKHPFPCPTSYRTALTYYLDITNPPRTNVLYELAQYASEPSEQELLRKMASSSGEGKELYLSWVVEARRHILAILQDCPSLRPPIDHLCELLPRLQARYYSIASSSKVHPNSVHICAVVVEYETKAGRINKGVATNWLRAKEPAGENGGRALVPMFVRKSQFRLPFKATTPVIMVGPGTGVAPFIGFIQERAWLRQQGKEVGETLLYYGCRRSDEDYLYREELAQFHRDGALTQLNVAFSREQSHKVYVQHLLKQDREHLWKLIEGGAHIYVCGDARNMARDVQNTFYDIVAELGAMEHAQAVDYIKKLMTKGRYSLDVWS
With B1 the “conversion of 4-androstene-3,17-dione (AD) to 11 alpha-hydroxy-AD, by HPLC” value was “successfully catalyzed the conversion of the steroid substrate 4-androstene-3,17-dione (AD) to 11 alpha-hydroxy-AD”.
